Source: patent publication US6833248B2, “Human caspase-12 materials and methods” (Pharmacia & Upjohn Company, priority 2000, dated 2004)
Each block holds one molecule with its values, some of them ahead of it.

Assays:
[1] = system: endogenous human caspase-12; test: Induction of endogenous caspase-12 protein by ER stress-inducing agents in SH-EP cells (Western blot); assay type: cell-based; details: SH-EP cells, 1 μg/ml tunicamycin, harvested over time
Procedure: Reports in the literature indicated a strong activation of murine caspase-12 in response to agents which induce an endoplasmic reticulum (ER) stress response, such as tunicamycin or the Ca^2+ ionophore A23187. The activation of endogenous human caspase-12 by these ER stress-inducing agents in SH-EP and HEK293 cells was evaluated by Western blot analysis of cell lysates. SH-EP is a neuroblastoma cell line that endogenously expresses human caspase-12 at detectable levels. HEK293 is a transformed kidney cell line that lacks detectable caspase-12.
(§1) Cell cultures were treated with 1 μg/ml tunicamycin or 2 μM A23187 (Calbiochem) and harvested over time. Cells were lysed in detergent buffer, cellular proteins resolved on NuPAGE gels and subjected to Western blot analysis using the same antibody as in Example 8A above. […] (BACHEM) for 40 hours.
The biological significance of caspase-12 up-regulation by the ER stress-inducing agent A23187 in apoptosis was further investigated. SH-EP cells were treated with 2 μM A23187 for 40 hours to induce expression of endogenous caspase-12. One control culture was left untreated. Of the four cultures treated with A23187, one culture received 10 μg/ml cycloheximide (CHX) to block new protein synthesis and two cultures were subjected to an apoptotic stimulus, either 250 ng/ml α-Fas antibody for 24 hours or 1200 microjoules UV irradiation. The cultures were harvested after 6.5 hours. Western blot analysis of caspase-12 expression and activation was done as described above in Example 8A, using similar protein loads for each condition tested.

GRP 78 = test: Induction of GRP 78 in cell cultures (control Western blot); assay type: cell-based; details: tunicamycin treatment
Procedure: as §1

calpain II = target: T1, calpain II (Homo sapiens, UniProt P17655); test: Calpain II cleavage of human caspase-12 in vitro (Western blot); assay type: biochemical; details: affinity-purified protein, 0.012 U/μl calpain II activated by 5 mM CaCl2
T1 construct: purchased Calbiochem
T1 sequence (P17655 1-700): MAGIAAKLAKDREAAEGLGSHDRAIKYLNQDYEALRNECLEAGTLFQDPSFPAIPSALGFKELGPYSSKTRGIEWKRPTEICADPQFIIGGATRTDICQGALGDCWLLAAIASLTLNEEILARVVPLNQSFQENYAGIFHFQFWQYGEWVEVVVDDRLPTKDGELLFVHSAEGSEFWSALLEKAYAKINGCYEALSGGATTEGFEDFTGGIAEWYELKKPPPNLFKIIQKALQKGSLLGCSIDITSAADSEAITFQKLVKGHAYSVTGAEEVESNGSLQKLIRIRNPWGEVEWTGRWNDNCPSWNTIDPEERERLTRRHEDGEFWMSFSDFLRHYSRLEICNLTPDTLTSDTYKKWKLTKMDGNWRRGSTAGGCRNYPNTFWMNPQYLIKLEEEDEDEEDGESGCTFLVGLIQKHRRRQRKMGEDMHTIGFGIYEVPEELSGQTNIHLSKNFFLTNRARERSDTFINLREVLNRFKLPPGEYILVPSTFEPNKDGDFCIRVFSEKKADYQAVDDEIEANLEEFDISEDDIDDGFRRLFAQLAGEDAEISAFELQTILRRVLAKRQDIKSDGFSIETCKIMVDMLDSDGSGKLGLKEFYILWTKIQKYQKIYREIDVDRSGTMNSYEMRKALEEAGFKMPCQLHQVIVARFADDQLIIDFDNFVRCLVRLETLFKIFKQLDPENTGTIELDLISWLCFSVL
T1 sequence (P04632 1-268 partner): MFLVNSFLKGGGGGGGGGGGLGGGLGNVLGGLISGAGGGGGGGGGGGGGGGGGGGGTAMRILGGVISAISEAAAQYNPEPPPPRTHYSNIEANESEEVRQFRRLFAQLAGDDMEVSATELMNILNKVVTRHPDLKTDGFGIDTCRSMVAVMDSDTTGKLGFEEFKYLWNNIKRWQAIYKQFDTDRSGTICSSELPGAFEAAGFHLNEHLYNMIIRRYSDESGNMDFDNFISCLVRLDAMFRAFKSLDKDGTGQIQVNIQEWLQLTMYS
Procedure: The relationship between calpain and caspase-12 was explored in vitro as follows. Affinity-purified hCaspase-12 and ΔCARD caspase-12 prepared as described in Example 3B above, were incubated with 0.012 U/μl calpain II (Calbiochem) in solutions containing 150 mM NaCl, 20 mM Tris-HCl, pH 7.5, and 1 mM DTT. Calpain II was activated by the addition of 5 mM CaCl2, while corresponding control cultures were not activated by addition of calcium. Cleavage of human caspase-12 was evaluated by Western blot analysis as described in Example 8A above. […] Thus, the activation and processing of caspase-12 is closely tied to cellular calcium levels. It is anticipated that calpain will process caspase-12 by recognizing the cleavage site “ASADT” at positions 269-272 of hCaspase-12 (SEQ ID NO: 77), with cleavage occurring between residues 271 and 272. Because cellular calcium is an important regulatory feature in health and disease, the signaling pathway to caspase-12 may have multiple branches that can result in activation of this caspase.

procaspase-3 = test: Proteolytic activity using procaspase-3 substrate (Western blot); assay type: biochemical; details: partially purified preparation, 2 hours at 37° C.; antibody to full-length caspase-3
Procedure: Lysates which contain recombinant caspases produced by expression in E. coli often contain fragments indicative of autoprocessing. Because the autolysis in caspase-12 lysates observed in Example 3B above is indicative of enzymatic activity, the enzymatic activity of partially purified human caspase-12 lysates was evaluated using procaspase-3 as a potential substrate. Caspase-3 is an effector caspase, which is cleaved at Asp175 by initiator caspases-8 and -9 to give the mature 19 kDa and 11 kDa subunits of the active enzyme. Processing of procaspase-3 was evaluated by Western blot analysis using an antibody that binds to full-length caspase-3 and another antibody that binds to the larger B subunit and that is specific for activated enzyme.
For use as a substrate for caspase-12, procaspase-3 was immunoprecipitated from SH-EP cell lysates using an antibody to full-length caspase-3 (Upstate Biotechnology, Inc.) and isolated on Protein G-Plus/Protein A agarose (Oncogene Science). […] Caspase-3 processing/activation by caspase-12 was detected by incubating with an anti-caspase-3 antibody (Upstate Biotechnology) which recognizes all subunits of caspase-3. Following incubation with an anti-rabbit HRP-conjugated antibody (Santa Cruz Biotechnology), immunoreactivity was detected by chemiluminescence using SuperSignal West PICO reagent (Pierce). […]

SH-EP cells = test: Cleavage of exogenous hCaspase-12 in transfected SH-EP cells after αFas-antibody induction of the extrinsic cell death pathway (Western blot); assay type: cell-based; details: 250 ng/ml αFas-antibody for 18 hours
Procedure: The role of hCaspase-12 in cell death pathways was examined using cells of a neuroblastoma cell line, SH-EP. In the extrinsic (or receptor-induced) cell death pathway, caspase-8 is the apical caspase that cleaves effector caspases such as caspase-3, which cleaves many cellular substrates. Caspase activation, indicated by cleavage of the proform of the enzyme in cell lysates, was evaluated by Western blot analysis.
The expression vector pIRES-hrGFP-1a harboring the hCaspase-12 or RIK-5 gene was transfected into SH-EP cells using Superfect transfection reagent (Qiagen). At 24 hours post-transfection, 250 ng/ml αFas-antibody (CH-11, Upstate Biotechnology) was added and incubated for 18 hours to induce the extrinsic cell death pathway. Culture medium and cells were harvested and lysed in detergent buffer. Cleavage of exogenous hCaspase-12 was evaluated by Western blot analysis using anti-human caspase-12 antibody (prepared against peptide WSHHLEEIFQKVQHSFE as described in Example 4).

DEVD-R110 = test: Homogeneous Caspase Assay, fluorimetric, release of rhodamine-110 from DEVD-R110; assay type: biochemical; details: partially purified protein preparation; two-hour incubation of DEVD-R110 substrate
Description: The enzymatic activity of the partially purified hCaspase-12 and ΔCARD proteins was further evaluated in a fluorimetric assay allowing quantitation. The caspase activity of partially purified hCaspase-12 and ΔCARD protein preparations was compared to a control (non-caspase protein) preparation, using the Homogeneous Caspase Assay (Roche Biochemicals) according to the manufacturer's protocol. The assay measures the amount of free rhodamine-110, following its release from the substrate DEVD-R110, a caspase recognition sequence. Following a two-hour incubation of DEVD-R110 substrate with dilutions of the various protein preparations, free rhodamine-110 was quantitated fluorimetrically. Measured fluorescence intensity (RFU) for each preparation was 807 for hCaspase-12, 445 for ΔCARD, and 31 for the control.

Molecule: tunicamycin
- Induction of caspase-12 protein [1]: strong induction
- Induction of GRP 78 (GRP 78): induction

- Cleavage by calpain II (calpain II): cleaves
- Measured fluorescence intensity (RFU), free rhodamine-110 (DEVD-R110): 445 RFU
B1: ΔCARD: variant of human caspase-12 missing the CARD domain, with Ser-205 to Gly mutation (SEQ ID NO: 79) (protein, listed as Homo sapiens)
chain: SALLEIQGAQPSGKLKLCPHAHFHELKTKRADEIYPVMEKERRTCLALNIRNKEFNYLHNRNGSELDLLGMRDLLENLGYSVVIKENLTAQEMETALRQFAAHPEHQSSDSTFLVFMSHGILNGICGTKHWDQEPDVLHDDTIFEIFNNRNCQSLKDKPKVIIMQACRGNGAGIVWFTTDSGKASADTHGRLLQGNICNDAVTKAHVEKDFIAFKSSTPHNVSWRHETNGSVFISQIIYYFREYSWSHHLEEIFQKVQHSFETPNILTQLPTIERLSMTRYFYLFPGN
- Processing of procaspase-3 to mature subunits (procaspase-3): lower molecular weight bands indicative of cleaved mature subunits were observed
- Cleavage of exogenous protein in cultures undergoing apoptosis (SH-EP cells): cleaved
